Ends that are not written are not given here. * marks the point of attachment. Fmoc = O=C(OCC1c2ccccc2-c2ccccc21)*
Molecular target: the molecule itself
Experiment: FTIR + circular dichroism + transmission electron microscopy; peptide alone; gelation by pH switch, 20 mg/mL stock; self-assembly under physiological conditions (pH 7.4) into nanofibrils and a hydrogel

B1: Fmoc-DDIKVAV self-assembling peptide (peptide)
peptide: Fmoc-DDIKVAV
notes: Whole peptide as printed: DDIKVAV with N-terminal Fmoc; Assembles into nanofibres and a hydrogel; also called SAP; IKVAV SAP; source: solid phase peptide synthesis
B1: binds.

Source: article PMC9101815, “Extracellular Matrix Biomimetic Hydrogels, Encapsulated with Stromal Cell-Derived Factor 1, Improve the Composition of Foetal Tissue Grafts in a Rodent Model of Parkinson’s Disease” (International Journal of Molecular Sciences, 2022)
